Publication PMC4600761

Tests used:
[1] = target: Syx-mtq2 (mTurquoise2 fused to the C terminus of syntaxin1A) (rat) (UniProt P32851); assay: FRET or BRET; two-photon FLIM, A1 fraction; Schaffer collateral boutons in rat hippocampal slice culture, probes by AAV1, during 300 mM sucrose stimulation
[2] = target: Syx-mtq2 (mTurquoise2 fused to the C terminus of syntaxin1A) (rat) (UniProt P32851); assay: FRET or BRET; two-photon FLIM, A1 fraction; Schaffer collateral boutons and axons in the CA1 region of rat hippocampal slice culture, probes by AAV1, resting
[3] = target: Syx-mtq (mTurquoise fused to the C terminus of syntaxin1A) (rat) (UniProt P32851); assay: FRET or BRET; two-photon FLIM, time-lapse (18 s accumulation); rat cortical neurons in dissociated culture during 300 mM sucrose stimulation; A1 from decay curve fitting or from average lifetime (τ1 0.5 ns assumed)
[4] = target: Syx-mtq (mTurquoise fused to the C terminus of syntaxin1A) (rat) (UniProt P32851); assay: FRET or BRET; two-photon FLIM of the mtq donor; fast decay component (A1 fraction) taken as the binding fraction of the donor; live rat cortical neurons in dissociated culture, lipofected, resting; boutons and axons
[5] = target: mtq-SNAP25b (mTurquoise fused to the N terminus of synaptosomal-associated protein 25b) (mouse) (UniProt P60879); assay: FRET or BRET
[6] = target: mtq-Syx (mTurquoise fused to the N terminus of syntaxin1A) (rat) (UniProt P32851); assay: FRET or BRET
[7] = target: mtq-SNAP25b (mTurquoise fused to the N terminus of synaptosomal-associated protein 25b) (mouse) (UniProt P60879); assay: FRET or BRET; two-photon FLIM, A1 fraction; plasma membrane of β cells in mouse islets of Langerhans, probes by lentivirus, resting state
[8] = target: mtq-Syx (mTurquoise fused to the N terminus of syntaxin1A) (rat) (UniProt P32851); assay: as above
[9] = target: mtq2-Syx (mTurquoise2 fused to the N terminus of syntaxin1A) (rat) (UniProt P32851); assay: FRET or BRET; two-photon FLIM, A1 fraction; Schaffer collateral boutons and axons in the CA1 region of rat hippocampal slice culture, probes by AAV1, resting
[10] = target: mtq-Syx (mTurquoise fused to the N terminus of syntaxin1A) (rat) (UniProt P32851); assay: FRET or BRET; two-photon FLIM, A1 fraction; rat cortical neurons in dissociated culture after chemical fixation and counterstaining with anti-synaptophysin antibody
[11] = target: mtq-SNAP25b (mTurquoise fused to the N terminus of synaptosomal-associated protein 25b) (mouse) (UniProt P60879); assay: FRET or BRET; two-photon FLIM, time-lapse (1.8 s), A1 from average lifetime (τ1 0.5 ns assumed); β cells in mouse islets stimulated with 16 mM glucose, region of 0.5 μm diameter around single exocytotic events
[12] = target: mtq-SNAP25b (mTurquoise fused to the N terminus of synaptosomal-associated protein 25b) (mouse) (UniProt P60879); assay: FRET or BRET; two-photon FLIM of the mtq donor; fast decay component (A1 fraction) taken as the binding fraction of the donor; live rat cortical neurons in dissociated culture, lipofected, resting; boutons and axons
[13] = target: mtq-Syx (mTurquoise fused to the N terminus of syntaxin1A) (rat) (UniProt P32851); assay: as above

Syx-mtq (mTurquoise fused to the C terminus of syntaxin1A) (rat), sequence (P32851 whole entry, the tested form may be a part): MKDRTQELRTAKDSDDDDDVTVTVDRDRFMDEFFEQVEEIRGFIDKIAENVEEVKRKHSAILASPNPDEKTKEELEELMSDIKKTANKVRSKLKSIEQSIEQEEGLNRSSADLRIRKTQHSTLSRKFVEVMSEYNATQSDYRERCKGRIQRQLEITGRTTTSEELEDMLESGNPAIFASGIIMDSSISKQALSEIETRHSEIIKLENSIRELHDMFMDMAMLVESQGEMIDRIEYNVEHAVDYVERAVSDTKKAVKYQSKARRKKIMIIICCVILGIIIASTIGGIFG
mtq-Syx (mTurquoise fused to the N terminus of syntaxin1A) (rat), sequence (P32851 whole entry, the tested form may be a part): as above
mtq-SNAP25b (mTurquoise fused to the N terminus of synaptosomal-associated protein 25b) (mouse), sequence (P60879 whole entry, the tested form may be a part): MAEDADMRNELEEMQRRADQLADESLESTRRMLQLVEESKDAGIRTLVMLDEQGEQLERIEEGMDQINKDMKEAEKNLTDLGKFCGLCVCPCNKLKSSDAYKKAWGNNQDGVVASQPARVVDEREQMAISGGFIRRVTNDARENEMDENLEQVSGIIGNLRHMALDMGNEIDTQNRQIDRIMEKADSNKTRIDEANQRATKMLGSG
mtq2-Syx (mTurquoise2 fused to the N terminus of syntaxin1A) (rat), sequence (P32851 whole entry, the tested form may be a part): as the sequence (P32851 whole entry, the tested form may be a part) above
Syx-mtq2 (mTurquoise2 fused to the C terminus of syntaxin1A) (rat), sequence (P32851 whole entry, the tested form may be a part): as above

What does the source list for “VAMP2-Ven (Venus fused to the C terminus of VAMP2) (from UniProt P63045 1-116) (natural protein)”?
A1 fraction (FRET of cis-complexes), boutons, during sucrose stimulation [1]: 13.6%; A1 fraction (FRET of cis-complexes), boutons, resting state [2]: 3.7%; increase in the A1 fraction in boutons on 300 mM sucrose (average lifetime) [3]: 12.9%; increase in the A1 fraction in boutons on 300 mM sucrose (decay curve fitting) [3]: 11.8%; A1 fraction (binding fraction, cis-complex), axons [4]: 21.5%; A1 fraction (binding fraction, cis-complex), boutons [4]: 24.7%

With “Ven-VAMP2 (Venus fused to the N terminus of vesicle-associated membrane protein 2) (from UniProt P63045 1-116) (natural protein)” as the substance, how does the other [5] read?
The other was 14.5%.

And the other [6]?
The other was 16.3%.

And the A1 fraction (binding fraction), plasma membrane of resting β cells [7]?
Its A1 fraction (binding fraction), plasma membrane of resting β cells is under 2%.

And the A1 fraction (binding fraction), plasma membrane of resting β cells [8]?
Its A1 fraction (binding fraction), plasma membrane of resting β cells is under 2%.

And the mean trans-SNARE fraction in boutons (A1b−A1a) [9]?
Its mean trans-SNARE fraction in boutons (A1b−A1a) is 11.9%.

What about the trans-SNARE fraction in the active zone (A1s–A1a), spines with volumes >0.25 [9] of the same substance?
Its trans-SNARE fraction in the active zone (A1s–A1a), spines with volumes >0.25 is 27.7%.

And the A1 fraction (binding fraction), boutons, after fixation [10]?
The A1 fraction (binding fraction), boutons, after fixation was 33.2%.

What about the A1 fraction (binding fraction), pixels in axons [10] of the same substance?
Its A1 fraction (binding fraction), pixels in axons is 15.6%.

What about the A1 fraction (binding fraction), pixels of boutons negative for synaptophysin [10] of the same substance?
The A1 fraction (binding fraction), pixels of boutons negative for synaptophysin was 17.4%.

And the A1 fraction (binding fraction), pixels of boutons positive for synaptophysin [10]?
The A1 fraction (binding fraction), pixels of boutons positive for synaptophysin was 38.8%.

And the peak A1 fraction (binding fraction) before single exocytotic events, averaged traces of 61 events, 16 mM glucose [11]?
The peak A1 fraction (binding fraction) before single exocytotic events, averaged traces of 61 events, 16 mM glucose was 8.3%.

And the A1 fraction (binding fraction), axons [12]?
The A1 fraction (binding fraction), axons was 22.7%.

And the A1 fraction (binding fraction), boutons [12]?
The A1 fraction (binding fraction), boutons was 36.7%.

And the A1 fraction (binding fraction), axons [13]?
Its A1 fraction (binding fraction), axons is 22.4%.

What about the A1 fraction (binding fraction), boutons, live [13] of the same substance?
The A1 fraction (binding fraction), boutons, live was 34.1%.

And the trans-SNARE fraction in each bouton (A1b−A1a) [13]?
The trans-SNARE fraction in each bouton (A1b−A1a) was 11.6%.
